Test results reported in publication PMC10572367, “The Generation of a Nanobody-Based ELISA for Human Microsomal Epoxide Hydrolase” (International Journal of Molecular Sciences, 2023).

Experiments:
[1] = target: T1, recombinant human microsomal epoxide hydrolase (Homo sapiens, UniProt P07099, final four amino acid residues of mEH (LERQ) were mutated to the Factor Xa …); test: ELISA; direct ELISA testing the titer of the candidate nanobodies; format not described; settings: both partners purified
T1 construct: human microsomal epoxide hydrolase (mEH), Uniprot P07099; Extracted from microsomes with beta-DDM; also called mEH; human mEH; source: Tni (Trichoplusia ni) insect cells, baculovirus, purified (Ni-NTA, size exclusion chromatography)
T1 sequence (P07099 other isoform, or with tags, fused parts or gaps with the stated changes): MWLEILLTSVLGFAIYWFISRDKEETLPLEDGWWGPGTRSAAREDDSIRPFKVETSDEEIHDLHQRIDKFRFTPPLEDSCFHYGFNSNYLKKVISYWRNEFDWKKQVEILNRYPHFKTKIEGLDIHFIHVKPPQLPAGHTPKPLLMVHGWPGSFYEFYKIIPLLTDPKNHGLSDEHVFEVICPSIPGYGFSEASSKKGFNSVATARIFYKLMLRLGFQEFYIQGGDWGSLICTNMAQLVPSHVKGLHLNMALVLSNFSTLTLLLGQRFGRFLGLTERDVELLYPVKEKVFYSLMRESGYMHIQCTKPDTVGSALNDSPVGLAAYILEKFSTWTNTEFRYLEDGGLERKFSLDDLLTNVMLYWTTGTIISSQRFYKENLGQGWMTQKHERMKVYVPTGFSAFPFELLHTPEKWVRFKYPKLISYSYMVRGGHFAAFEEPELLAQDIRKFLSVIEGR

[2] = target: T1, recombinant human microsomal epoxide …; test: far-Western, overlay or dot blot; Western blot: recombinant human mEH denatured, run on Mini-protean TGX gels, transferred to PVDF; nanobody as detection antibody (HRP-labelled anti-HA as tracer, or MQM8-HRP); settings: both partners purified
[3] = target: T2, human mEH in human tissue whole extracts (Homo sapiens, endogenous, UniProt P07099); test: ELISA; sandwich ELISAs of formats A, B and C (mAb capture, native or biotinylated MQ30 detection) on human whole tissue extracts diluted 10^3, 10^4 and 10^5-fold; settings: one partner purified
T2 construct: human microsomal epoxide hydrolase, endogenous in human tissue extracts (adrenal, esophagus, liver, pancreas, ovary, heart, hippocampus); also called bioactive mEH in the crude extracts; source: endogenous, whole tissue extracts of human commercial tissue samples (BioChain Institute)
T2 sequence (P07099 whole entry): as the sequence (P07099 other isoform, or with tags, fused parts or gaps with the stated changes) above, with I452L, G454R, R455Q counted along it

[4] = target: T3, human EH-3 (human) (UniProt Q9H6B9); test: ELISA; cross-reactivity in the format A sandwich (mAb capture, MQ30 detection): epoxide hydrolases spiked at 1000 ng mL^-1 in PBS, read against the human mEH standard curve; a signal needs capture by the mAb as well as MQ30
T3 sequence: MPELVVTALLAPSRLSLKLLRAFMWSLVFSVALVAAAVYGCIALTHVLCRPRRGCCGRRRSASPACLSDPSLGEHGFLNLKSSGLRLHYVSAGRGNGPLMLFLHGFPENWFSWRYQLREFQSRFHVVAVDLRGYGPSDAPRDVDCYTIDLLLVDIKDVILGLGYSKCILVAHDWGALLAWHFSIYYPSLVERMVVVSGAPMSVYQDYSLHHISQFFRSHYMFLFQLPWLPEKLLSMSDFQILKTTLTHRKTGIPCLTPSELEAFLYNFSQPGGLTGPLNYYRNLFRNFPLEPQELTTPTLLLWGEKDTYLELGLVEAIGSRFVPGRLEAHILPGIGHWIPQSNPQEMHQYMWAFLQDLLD

[5] = target: T4, human EH-4 (human) (UniProt Q8IUS5); test: as above
T4 sequence: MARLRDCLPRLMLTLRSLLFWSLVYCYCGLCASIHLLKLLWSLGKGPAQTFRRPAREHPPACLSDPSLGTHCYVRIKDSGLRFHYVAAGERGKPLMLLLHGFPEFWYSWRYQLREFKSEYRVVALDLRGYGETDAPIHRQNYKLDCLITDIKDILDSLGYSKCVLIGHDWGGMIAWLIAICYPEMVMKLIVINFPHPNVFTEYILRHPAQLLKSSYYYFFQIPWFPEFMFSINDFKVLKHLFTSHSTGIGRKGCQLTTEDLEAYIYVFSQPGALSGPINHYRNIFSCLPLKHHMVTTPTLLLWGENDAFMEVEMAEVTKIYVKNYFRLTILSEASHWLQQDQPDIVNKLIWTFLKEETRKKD

[6] = target: T5, human sEH (human) (UniProt P34913); test: as above
T5 sequence: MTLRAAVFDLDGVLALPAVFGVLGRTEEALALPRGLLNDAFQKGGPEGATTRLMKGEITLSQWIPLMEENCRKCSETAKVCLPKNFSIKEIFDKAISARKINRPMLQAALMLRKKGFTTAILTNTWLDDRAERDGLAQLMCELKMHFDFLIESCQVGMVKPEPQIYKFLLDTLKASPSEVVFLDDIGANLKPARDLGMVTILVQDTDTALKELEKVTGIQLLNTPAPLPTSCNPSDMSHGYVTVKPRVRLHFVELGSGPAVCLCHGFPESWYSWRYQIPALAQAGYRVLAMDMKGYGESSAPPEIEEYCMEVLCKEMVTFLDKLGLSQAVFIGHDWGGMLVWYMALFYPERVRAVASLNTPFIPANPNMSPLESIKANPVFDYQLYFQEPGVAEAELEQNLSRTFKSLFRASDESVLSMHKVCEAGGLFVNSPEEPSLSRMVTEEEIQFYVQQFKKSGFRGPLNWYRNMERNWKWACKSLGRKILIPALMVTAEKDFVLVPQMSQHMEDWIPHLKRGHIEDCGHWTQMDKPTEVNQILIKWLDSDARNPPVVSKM

[7] = target: T6, rat mEH (rat) (UniProt P07687); test: as above
T6 sequence: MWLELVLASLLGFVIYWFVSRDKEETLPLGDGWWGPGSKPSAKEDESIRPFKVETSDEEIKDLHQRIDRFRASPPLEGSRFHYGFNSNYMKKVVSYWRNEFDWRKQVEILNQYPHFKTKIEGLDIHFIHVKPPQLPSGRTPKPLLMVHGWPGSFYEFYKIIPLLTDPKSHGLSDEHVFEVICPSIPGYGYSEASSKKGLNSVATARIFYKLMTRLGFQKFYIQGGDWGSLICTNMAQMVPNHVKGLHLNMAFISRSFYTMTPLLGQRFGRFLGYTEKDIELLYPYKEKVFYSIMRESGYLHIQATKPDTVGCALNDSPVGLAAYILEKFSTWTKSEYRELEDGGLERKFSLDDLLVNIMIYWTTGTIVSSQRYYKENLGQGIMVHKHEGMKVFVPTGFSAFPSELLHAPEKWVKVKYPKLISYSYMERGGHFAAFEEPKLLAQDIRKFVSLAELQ

[8] = target: T1, recombinant human microsomal epoxide …; test: ELISA; phage ELISA of randomly picked single phage clones against recombinant human mEH; settings: one partner purified

B1: nanobody MQM8 (VHH)
VHH: QLQLVESGGGFVPPGGSLRLSCAASGFIFRFVGMGRYRQAPGKQRELVASITGNDYRNYADSVKGRFTISRDNYKNTVDLQMNSLKPEDTAVYYCNRVPLDFGSWGQGTQVTVSS
notes: Selected from a phage library of an immunised llama; In the phage ELISA the clone stood on phage, not as the soluble purified VHH; also called VHH MQM8; source: E. coli TOP10F', purified (B-PER extraction, Ni-NTA); in the phage ELISA as a phage clone
- binding result [1]: binds

B2: MQM8-HRP (VHH)
VHH: B1 VHH
notes: as the VHH of m5 (MQM8); Named only as 'MQM8-HRP as a signal tracer'; also called HRP-labelled VHH MQM8
- binding result [2]: binds

B3: nanobody MQ30 (VHH)
VHH: QVQLVESGGGVVQPGGSLRLSCVVSGSRFSLNFMGWFRQAPGKEREFVAALIWRGDVAHYAASNKGRFTVSKESAKNTVYLQLNSLEPEDTAVYSCAAQPWYSRDTYSDSDSYKYWGQGTQVTVSS
notes: Selected from a phage library of an immunised llama; In the phage ELISA the clone stood on phage, not as the soluble purified VHH; also called VHH MQ30; native VHH MQ30; source: E. coli TOP10F', purified (B-PER extraction, Ni-NTA); in the phage ELISA as a phage clone
- binding result [3]: binds
- cross-reactivity [4]: < 0.01%
- cross-reactivity [5]: < 0.01%
- cross-reactivity [6]: < 0.01%
- cross-reactivity [7]: 0.11%
- measured concentration at 1000 ng mL^-1 spiked [7]: 1.05 ng/mL

B4: biotinylated VHH MQ30 (VHH)
VHH: B3 VHH
notes: as the VHH of m4 (MQ30); also called biotinylated MQ30; source: E. coli TOP10F', purified (Ni-NTA), then biotinylated
- binding result [3]: binds

B5: nanobody MQ17 (VHH)
VHH: QLQLVESGGGLVQPGGSLTLSCAASGSIFTIDALGWFRQAPGKEREFVAALPWRDGVPYYAASNKGRFSVSKDSAKNTVFKNTVFLQVNNLEPEDTAVYSCAARPWYATSTYSDSDSYGYWGQGTQVTVSS
notes: Selected from a phage library of an immunised llama; In the phage ELISA the clone stood on phage, not as the soluble purified VHH; also called VHH MQ17; source: E. coli TOP10F', purified (B-PER extraction, Ni-NTA); in the phage ELISA as a phage clone
- binding result [1]: binds

B6: nanobody MQ4 (VHH)
VHH: QVQLVESGGGLAQPGGSLRLSCDASGSPYIINDMGWYRQAPGKQRELVASITRRGITNVADSVKGRFTISRDNAKMTVYLQMNSLKSEDTALYNCHAQPAVTPRMDYWGQGTQVTVSS
notes: Selected from a phage library of an immunised llama; In the phage ELISA the clone stood on phage, not as the soluble purified VHH; also called VHH MQ4; source: E. coli TOP10F', purified (B-PER extraction, Ni-NTA); in the phage ELISA as a phage clone
- binding result [8]: binds
